The source of these data is IntAct's records for PubMed 28620713.

B1: Cytochrome P450 1B1 (Homo sapiens), Q16678 (parent)
chain: MGTSLSPNDPWPLNPLSIQQTTLLLLLSVLATVHVGQRLLRQRRRQLRSAPPGPFAWPLIGNAAAVGQAAHLSFARLARRYGDVFQIRLGSCPIVVLNGERAIHQALVQQGSAFADRPAFASFRVVSGGRSMAFGHYSEHWKVQRRAAHSMMRNFFTRQPRSRQVLEGHVLSEARELVALLVRGSADGAFLDPRPLTVVAVANVMSAVCFGCRYSHDDPEFRELLSHNEEFGRTVGAGSLVDVMPWLQYFPNPVRTVFREFEQLNRNFSNFILDKFLRHCESLRPGAAPRDMMDAFILSAEKKAAGDSHGGGARLDLENVPATITDIFGASQDTLSTALQWLLLLFTRYPDVQTRVQAELDQVVGRDRLPCMGDQPNLPYVLAFLYEAMRFSSFVPVTIPHATTANTSVLGYHIPKDTVVFVNQWSVNHDPLKWPNPENFDPARFLDKDGLINKDLTSRVMIFSVGKRRCIGEELSKMQLFLFISILAHQCDFRANPNEPAKMNFSYGLTIKPKSFKVNVTLRESMELLDSAVQNLQAKETCQ

The first test covers variants of B1. The settings on record: with tie2_human TEK.
Consider MGTSLSPNDPWPLNPLSIQQTTLLLLLSVLATVHVGQRLLRQRRRQLRSAPPGPFAWPLIGNAAAVGQAAHLSFARLARRYGDVFQIRLGSCPIVVLNGERAIHQALVQQGSAFPDRPAFASFRVVSGGRSMAFGHYSEHWKVQRRAAHSMMRNFFTRQPRSRQVLEGHVLSEARELVALLVRGSADGAFLDPRPLTVVAVANVMSAVCFGCRYSHDDPEFRELLSHNEEFGRTVGAGSLVDVMPWLQYFPNPVRTVFREFEQLNRNFSNFILDKFLRHCESLRPGAAPRDMMDAFILSAEKKAAGDSHGGGARLDLENVPATITDIFGASQDTLSTALQWLLLLFTRYPDVQTRVQAELDQVVGRDRLPCMGDQPNLPYVLAFLYEAMRFSSFVPVTIPHATTANTSVLGYHIPKDTVVFVNQWSVNHDPLKWPNPENFDPARFLDKDGLINKDLTSRVMIFSVGKRRCIGEELSKMQLFLFISILAHQCDFRANPNEPAKMNFSYGLTIKPKSFKVNVTLRESMELLDSAVQNLQAKETCQ [A115P], for which the “effect of a mutation on the interaction” value is “disrupting interaction strength”.
On the same count and under the same terms, as for MGTSLSPNDPWPLNPLSIQQTTLLLLLSVLATVHVGQRLLRQRRRQLRSAPPGPFAWPLIGNAAAVGQAAHLSFARLARRYGDVFQIRLGSCPIVVLNGERAIHQALVQQGSAFADRPAFASFRVVSGGRSMAFGHYSEHWKVQRRAAHSMMRNFFTRQPRSRQVLEGHVLSEARELVALLVRGSADGAFLDPRPLTVVAVANVMSAVCFGCRYSHDDPEFRELLSHNEEFGRTVGAGSLVDVMPWLQYFPNPVRTVFREFEQLNRNFSNFILDKFLRHCESLRPGAAPRDMMDAFILSAEKKAAGDSHGGGARLDLENVPATITDIFGASQDTLSTALQWLLLLFTRYPDVQTRVQAELDQVVGRDHLPCMGDQPNLPYVLAFLYEAMRFSSFVPVTIPHATTANTSVLGYHIPKDTVVFVNQWSVNHDPLKWPNPENFDPARFLDKDGLINKDLTSRVMIFSVGKRRCIGEELSKMQLFLFISILAHQCDFRANPNEPAKMNFSYGLTIKPKSFKVNVTLRESMELLDSAVQNLQAKETCQ [R368H], the entry is “decreasing interaction strength”.

In a further test the parent is B1. Particulars: with tie2_human TEK. This is another data set of the same source.
Regarding MGTSLSPNDPWPLNPLSIQQTTLLLLLSVLATVHVGQRLLRQRRRQLRSAPPGPFAWPLIGNAAAVGQAAHLSFARLARRYGDVFQIRLGSCPIVVLNGERAIHQALVQQGSAFADRPAFASFRVVSGGRSMAFGHYSEHWKVQRRAAHSMMRNFFTRQPRSRQVLEGHVLSEARELVALLVRGSADGAFLDPRPLTVVAVANVMSAVCFGCRYSHDDPEFRELLSHNKEFGRTVGAGSLVDVMPWLQYFPNPVRTVFREFEQLNRNFSNFILDKFLRHCESLRPGAAPRDMMDAFILSAEKKAAGDSHGGGARLDLENVPATITDIFGASQDTLSTALQWLLLLFTRYPDVQTRVQAELDQVVGRDRLPCMGDQPNLPYVLAFLYEAMRFSSFVPVTIPHATTANTSVLGYHIPKDTVVFVNQWSVNHDPLKWPNPENFDPARFLDKDGLINKDLTSRVMIFSVGKRRCIGEELSKMQLFLFISILAHQCDFRANPNEPAKMNFSYGLTIKPKSFKVNVTLRESMELLDSAVQNLQAKETCQ [E229K], the “effect of a mutation on the interaction” value is “disrupting interaction strength”.

In a further test the parent is B1. Particulars: with tie2_human TEK. The source holds these as a separate data set.
With MGTSLSPNDPWPLNPLSIQQTTLLLLLSVLATVHVGQRLLRQRRRQLRSAPPGPFAWPLIGNAAAVGQAAHLSFARLARRYGDVFQIRLGSCPIVVLNGERAIHQALVQQGSAFADRPAFASFRVVSGGRSMAFGHYSEHWKVQRRAAHSMMRNFFTRQPRSRQVLEGHVLSEARELVALLVRGSADGAFLDPRPLTVVAVANVMSAVCFGCRYSHDDPEFRELLSHNKEFGRTVGAGSLVDVMPWLQYFPNPVRTVFREFEQLNRNFSNFILDKFLRHCESLRPGAAPRDMMDAFILSAEKKAAGDSHGGGARLDLENVPATITDIFGASQDTLSTALQWLLLLFTRYPDVQTRVQAELDQVVGRDRLPCMGDQPNLPYVLAFLYEAMRFSSFVPVTIPHATTANTSVLGYHIPKDTVVFVNQWSVNHDPLKWPNPENFDPARFLDKDGLINKDLTSRVMIFSVGKRRCIGEELSKMQLFLFISILAHQCDFRANPNEPAKMNFSYGLTIKPKSFKVNVTLRESMELLDSAVQNLQAKETCQ [E229K], the “effect of a mutation on the interaction” value was “with no effect”.
